Data reported in the RNAGym collection of RNA variant scans (doi:10.1021/acssynbio.7b00057).

B1: Pistol ribozyme (parent)
chain: GGGUCGUUGUUCCAUAAUCGCGUGGAUAUGGCACGCAAGUUUCUACCGGGCACCGUAAAUGUCCGACUGGAGCCGUUCGGGCGGCUAUAAACAGACCUCAGGCCCGAAGCGUGGCGGCACCUGCCGCCGGUGGUAAAAAAGAUCGGAAGAGCACACGUCU

Variants of: B1
Assay: aptazyme ON/OFF ratio, guanine; higher = stronger switching; co-transcriptional cleavage with and without guanine

| Variant | aptazyme ON/OFF ratio |
| --- | --- |
| U7A U8A G9A U11A C12G C13A | 1.14 |
| U7A U8A G9A U11A C12G C13G | 1.28 |
| U7A U8A G9A U11A C12G C13U | 1.25 |
| U7A U8A G9C U10C U11A | 0.719 |
| U7A U8A G9C U10C U11G | 0.815 |
| U7A U8A G9C U10C U11C | 0.984 |
| U7A U8A G9A U10G U11A C12U | 1.03 |
| U7A U8A G9A U10G U11A C12G | 1.13 |
| U7A U8A G9A U10G U11A C12A | 1.15 |
| U7A U8A G9C U10C C12G C13A | 0.99 |
| U7A U8A G9C U10C C12G C13U | 1.06 |
| U7A U8A G9C U10C C12G C13G | 1.05 |
| U7A U8A G9C U10A U11A C12U C13G | 1.18 |
| U7A U8A G9C U10A U11A C12U C13U | 1.13 |
| U7A U8A G9C U10A U11A C12U C13A | 1.2 |
| U7A U8A G9C U10A U11A C12G | 1.27 |
| U7A U8A G9C U10A U11A C12U | 1.19 |
| U7A U8A G9C U10A U11A C12A | 1.13 |
| U7A U8A G9C U10A U11G C12G C13U | 1.14 |
| U7A U8A G9C U10A U11G C12G C13G | 1.25 |
| U7A U8A G9C U10A U11G C12G C13A | 1.18 |
| U7A U8A G9C U10A U11A C13U | 1.27 |
| U7A U8A G9C U10A U11A C13A | 1.23 |
| U7A U8A G9C U10A U11A C13G | 1.09 |

| Variant | aptazyme ON/OFF ratio |
| --- | --- |
| U7A U8A G9C U10A U11G C12A C13U | 1.08 |
| U7A U8A G9C U10A U11G C12A C13A | 1.07 |
| U7A U8A G9C U10A U11G C12A C13G | 1.18 |
| U7A U8A G9A U10C C12A C13G | 1.03 |
| U7A U8A G9A U10C C12A C13A | 1.13 |
| U7A U8A G9A U10C C12A C13U | 1 |
| U7A U8A G9A U10A U11G C12U | 1.19 |
| U7A U8A G9A U10A U11G C12G | 1.16 |
| U7A U8A G9C U10C U11A C12A | 1.06 |
| U7A U8A G9C U10C U11A C12G | 1.06 |
| U7A U8A G9C U10C U11A C12U | 1.07 |
| U7A U8A G9A U10C U11G C13U | 1.09 |
| U7A U8A G9A U10C U11G C13G | 1.24 |
| U7A U8A G9A U10C U11G C13A | 1.08 |
| U7A U8A G9A U10G U11C C12A C13G | 1.14 |
| U7A U8A G9A U10G U11C C12A C13A | 1.17 |
| U7A U8A G9A U10G U11C C12A C13U | 1.19 |
| U7A U8A G9C U10C U11C C12U C13U | 1.05 |
| U7A U8A G9C U10C U11C C12U C13A | 1.01 |
| U7A U8A G9C U10C U11C C12U C13G | 1.02 |
| U7A U8A G9A U10G C12A C13A | 1.21 |
| U7A U8A G9A U10G C12A C13U | 1.2 |
| U7A U8A G9A U10G C12A C13G | 1.12 |
| U7A U8A G9A U11C C12A | 1.16 |

| Variant | aptazyme ON/OFF ratio |
| --- | --- |
| U7A U8A G9A U11C C12G | 1.1 |
| U7A U8A G9A U11C C12U | 1.06 |
| U7A U8A G9A U10C U11G C12U C13A | 1.14 |
| U7A U8A G9A U10C U11G C12U C13U | 1.13 |
| U7A U8A G9A U10C U11G C12U C13G | 1.05 |
| U7A U8A G9C U10A C12U C13U | 1.04 |
| U7A U8A G9C U10A C12U C13G | 1.1 |
| U7A U8A G9C U10A C12U C13A | 1.09 |
| U7A U8A G9C U10A C12G C13G | 1.13 |
| U7A U8A G9C U10A C12G C13U | 1.16 |
| U7A U8A G9C U10A C12G C13A | 1.15 |
| U7A U8A G9A U10A U11G C13G | 1.18 |
| U7A U8A G9A U10A U11G C13A | 1.17 |
| U7A U8A G9A U10A U11G C13U | 1.16 |
| U7A U8A G9A U10A U11G C12A C13A | 1.16 |
| U7A U8A G9A U10A U11G C12A C13G | 1.24 |
| U7A U8A G9A U10A U11G C12A C13U | 1.24 |
| U7A U8A G9C C12U C13A | 1.15 |
| U7A U8A G9C C12U C13U | 1.42 |
| U7A U8A G9C C12U C13G | 1.23 |
| U7A U8A G9A U10C U11C C12A C13U | 1.07 |
| U7A U8A G9A U10C U11C C12A C13G | 1.04 |
| U7A U8A G9A U10C U11C C12A C13A | 1.12 |
| U7A U8A G9C U10C U11C C13A | 1.03 |

| Variant | aptazyme ON/OFF ratio |
| --- | --- |
| U7A U8A G9C U10C U11C C13U | 1.04 |
| U7A U8A G9C U10C U11C C13G | 1.07 |
| U7A U8A G9A U10G U11A C13A | 1.01 |
| U7A U8A G9A U10G U11A C13U | 0.974 |
| U7A U8A G9A U10G U11A C13G | 1.03 |
| U7A U8A G9A U10G U11C C12U C13A | 1.07 |
| U7A U8A G9A U10G U11C C12U C13G | 1.19 |
| U7A U8A G9A U10G U11C C12U C13U | 1.23 |
| U7A U8A G9C U10C U11A C13G | 1.19 |
| U7A U8A G9C U10C U11A C13A | 1.14 |
| U7A U8A G9C U10C U11A C13U | 1.13 |
| U7A U8A G9A U11A C12U C13A | 1.07 |
| U7A U8A G9A U11A C12U C13U | 1.22 |
| U7A U8A G9A U11A C12U C13G | 1.23 |
| U7A U8A G9C U10C U11G C13A | 1.06 |
| U7A U8A G9C U10C U11G C13U | 1.05 |
| U7A U8A G9C U10C U11G C13G | 1.05 |
| U7A U8A G9A U10C U11G C12U | 1.11 |
| U7A U8A G9A U10C U11G C12A | 1.12 |
| U7A U8A G9A U10C U11G C12G | 1.23 |
| U7A U8A G9A U10C U11G C12A C13U | 1.12 |
| U7A U8A G9A U10C U11G C12A C13A | 1.09 |
| U7A U8A G9A U10C U11G C12A C13G | 1.09 |
| U7A U8A G9A U10C U11A C12A C13G | 1.06 |

| Variant | aptazyme ON/OFF ratio |
| --- | --- |
| U7A U8A G9A U10C U11A C12A C13A | 1.11 |
| U7A U8A G9A U10C U11A C12A C13U | 1.13 |
| U7A U8A G9A U10G U11A C12A C13U | 1.2 |
| U7A U8A G9A U10G U11A C12A C13A | 1.02 |
| U7A U8A G9A U10G U11A C12A C13G | 1.18 |
| U7A U8A G9C U10A C13A | 1.21 |
| U7A U8A G9C U10A C13G | 1.07 |
| U7A U8A G9C U10A C13U | 1.18 |
| U7A U8A G9C U10C U11A C12G C13A | 1.05 |
| U7A U8A G9C U10C U11A C12G C13U | 1.1 |
| U7A U8A G9C U10C U11A C12G C13G | 1.06 |
| U7A U8A G9A U10C C12G | 1.05 |
| U7A U8A G9A U10C C12A | 1.1 |
| U7A U8A G9A U10C C12U | 1.23 |
| U7A U8A G9A U11C | 1.03 |
| U7A U8A G9A U11G | 1.29 |
| U7A U8A G9A U11A | 1.16 |
| U7A U8A G9C U10A U11C C12G C13U | 1.27 |
| U7A U8A G9C U10A U11C C12G C13A | 1.18 |
| U7A U8A G9C U10A U11C C12G C13G | 1.14 |
| U7A U8A G9A U11G C12A C13G | 1.11 |
| U7A U8A G9A U11G C12A C13A | 1.08 |
| U7A U8A G9A U11G C12A C13U | 1.09 |
| U7A U8A G9C U10C C13A | 1.04 |

| Variant | aptazyme ON/OFF ratio |
| --- | --- |
| U7A U8A G9C U10C C13U | 1.12 |
| U7A U8A G9C U10C C13G | 1 |
| U7A U8A G9C U10A U11G C12U | 1.22 |
| U7A U8A G9C U10A U11G C12A | 1.05 |
| U7A U8A G9C U10A U11G C12G | 1.19 |
| U7A U8A G9A U10G C13G | 1.46 |
| U7A U8A G9A U10G C13U | 1.34 |
| U7A U8A G9A U10G C13A | 1.6 |
| U7A U8A G9A U10C U11A C13U | 1.09 |
| U7A U8A G9A U10C U11A C13G | 1.09 |
| U7A U8A G9A U10C U11A C13A | 1.11 |
| U7A U8A G9C U10A U11C C12U C13U | 1.11 |
| U7A U8A G9C U10A U11C C12U C13A | 1.13 |
| U7A U8A G9C U10A U11C C12U C13G | 1.19 |
| U7A U8A G9C U10A C12G | 1.25 |
| U7A U8A G9C U10A C12U | 1.15 |
| U7A U8A G9C U10A C12A | 1.2 |
| U7A U8A G9A U10G C12G C13A | 1.06 |
| U7A U8A G9A U10G C12G C13G | 1.11 |
| U7A U8A G9A U10G C12G C13U | 1.31 |
| U7A U8A G9A U10A U11G C12G C13U | 1.59 |
| U7A U8A G9A U10A U11G C12G C13A | 1.25 |
| U7A U8A G9A U10A U11G C12G C13G | 1.32 |
| U7A U8A G9A U11C C12A C13A | 1.17 |

| Variant | aptazyme ON/OFF ratio |
| --- | --- |
| U7A U8A G9A U11C C12A C13G | 1.14 |
| U7A U8A G9A U11C C12A C13U | 1.22 |
| U7A U8A G9C U10C U11A C12U C13G | 1.1 |
| U7A U8A G9C U10C U11A C12U C13A | 1.03 |
| U7A U8A G9C U10C U11A C12U C13U | 1.09 |
| U7A U8A G9C C13G | 1.03 |
| U7A U8A G9C C13A | 1.15 |
| U7A U8A G9C C13U | 1.13 |
| U7A U8A G9A U10C U11A C12U C13A | 1.1 |
| U7A U8A G9A U10C U11A C12U C13G | 1.16 |
| U7A U8A G9A U10C U11A C12U C13U | 1.03 |
| U7A U8A G9C U10A U11C C13U | 1.04 |
| U7A U8A G9C U10A U11C C13A | 1.07 |
| U7A U8A G9C U10A U11C C13G | 1.05 |
| U7A U8A G9A U10C C12U C13U | 1.19 |
| U7A U8A G9A U10C C12U C13G | 1.15 |
| U7A U8A G9A U10C C12U C13A | 1.01 |
| U7A U8A G9A U10C U11G C12G C13G | 1.15 |
| U7A U8A G9A U10C U11G C12G C13A | 1.11 |
| U7A U8A G9A U10C U11G C12G C13U | 1.08 |
| U7A U8A G9A U10A U11G C12U C13A | 1.3 |
| U7A U8A G9A U10A U11G C12U C13U | 1.3 |
| U7A U8A G9A U10A U11G C12U C13G | 1.24 |
